{"source": "patent US20110086770A1", "key": {"[1]": {"biological_target": "T1, recombinant human DR 4 receptor Fc fusion protein (R&D Systems) (human)", "T1 sequence (O00220 whole entry, looked up)": "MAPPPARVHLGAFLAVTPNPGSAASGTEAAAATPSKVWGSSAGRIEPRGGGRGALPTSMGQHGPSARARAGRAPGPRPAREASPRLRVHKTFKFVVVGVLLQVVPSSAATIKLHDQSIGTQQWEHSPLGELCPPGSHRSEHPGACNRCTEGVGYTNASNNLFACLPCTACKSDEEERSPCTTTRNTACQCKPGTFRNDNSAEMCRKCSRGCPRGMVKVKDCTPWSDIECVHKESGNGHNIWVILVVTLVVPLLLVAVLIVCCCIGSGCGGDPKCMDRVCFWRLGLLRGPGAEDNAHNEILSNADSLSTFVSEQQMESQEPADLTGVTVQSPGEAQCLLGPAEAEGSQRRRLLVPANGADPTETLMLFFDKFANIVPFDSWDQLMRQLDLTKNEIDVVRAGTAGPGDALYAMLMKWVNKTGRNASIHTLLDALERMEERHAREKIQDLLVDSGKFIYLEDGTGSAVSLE", "experiment": "SPR (Biacore), captured DR4/Fc"}, "[2]": {"biological_target": "recombinant human DR 5 receptor Fc fusion protein (R&D Systems) (human)", "sequence (O14763 whole entry, the tested form may be a part)": "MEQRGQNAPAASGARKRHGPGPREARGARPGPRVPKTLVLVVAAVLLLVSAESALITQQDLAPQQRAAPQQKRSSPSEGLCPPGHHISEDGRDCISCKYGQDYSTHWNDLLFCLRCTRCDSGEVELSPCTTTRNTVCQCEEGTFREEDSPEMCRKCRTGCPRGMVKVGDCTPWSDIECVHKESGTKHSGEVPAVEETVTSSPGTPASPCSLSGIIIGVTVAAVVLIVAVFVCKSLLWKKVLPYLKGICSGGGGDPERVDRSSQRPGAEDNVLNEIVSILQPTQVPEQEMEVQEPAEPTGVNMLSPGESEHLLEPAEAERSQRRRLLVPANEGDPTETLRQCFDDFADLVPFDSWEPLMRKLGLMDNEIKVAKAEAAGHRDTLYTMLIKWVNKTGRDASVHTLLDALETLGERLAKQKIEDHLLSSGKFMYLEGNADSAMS", "experiment": "SPR (Biacore), captured DR5/Fc"}}, "data": [{"binder": "014-42.3D10 ATRIMER (designed binder, part only; not given: nothing essential, part only) chain, part: EPPTQKPKKIVNAKKDVVNTKMFEELKSRLDTLAQEVALLKEQQALQTVCLKGTKVHMKCFLAFTQTKTFHEASEDCISRGGTLSTPQTGSENDALYEYLRQSVGNEAEIWLGLNVDMTGARIAYKNWETEITAQPCAVLSGAANGKWFDKRCRDQLPYICQFGIV", "values": [{"measurement": "Ka", "setting": "[1]", "result": "6.58e+06", "unit": "M⁻¹"}, {"measurement": "Kd", "setting": "[1]", "result": 152, "unit": "nM"}, {"measurement": "koff", "setting": "[1]", "result": 0.00185, "unit": "s⁻¹"}, {"measurement": "kon", "setting": "[1]", "result": 12200, "unit": "M⁻¹ s⁻¹"}]}, {"binder": "014-42.3B8 ATRIMER (designed binder, part only; not given: nothing essential, part only) chain, part: EPPTQKPKKIVNAKKDVVNTKMFEELKSRLDTLAQEVALLKEQQALQTVCLKGTKVHMKCFLAFTQTKTFHEASEDCISRGGTLSTPQTGSENDALYEYLRQSVGNEAEIWLGLNVDMTGARIAYKNWETEITAQPCAVLSGAANGKWFDKRCRDQLPYICQFGIV", "values": [{"measurement": "Ka", "setting": "[1]", "result": "1.11e+08", "unit": "M⁻¹"}, {"measurement": "Kd", "setting": "[1]", "result": 9.01, "unit": "nM"}, {"measurement": "koff", "setting": "[1]", "result": 0.00101, "unit": "s⁻¹"}, {"measurement": "kon", "setting": "[1]", "result": 112000, "unit": "M⁻¹ s⁻¹"}]}, {"binder": "4a8c (=A3C) DR 5 ATRIMER (designed binder, from a related filing, part only) EPPTQKPKKIVNAKKDVVNTKMFEELKSRLDTLAQEVALLKEQQALQTVCLKGTKVHMKCFLAFTQTKTFHEASEDCISRGGTLSTPQTGSENDALYEYLRQSVGNEAEIWLGLNRATLRPRWVDMTGARIAYKNWETEITAQPDGGKNCAVLSGAANGKWFDKRCRDQLPYICQFGIV", "values": [{"measurement": "Ka", "setting": "[2]", "result": "1.74e+08", "unit": "M⁻¹"}, {"measurement": "Kd", "setting": "[2]", "result": 5.74, "unit": "nM"}, {"measurement": "koff", "setting": "[2]", "result": 0.000362, "unit": "s⁻¹"}, {"measurement": "kon", "setting": "[2]", "result": 63000, "unit": "M⁻¹ s⁻¹"}]}]}
